B1: human wild-type p38γ (HA-tagged) (enzyme)
chain: MSSPPPARSGFYRQEVTKTAWEVRAVYRDLQPVGSGAYGAVCSAVDGRTGAKVAIKKLYRPFQSELFAKRAYRELRLLKHMRHENVIGLLDVFTPDETLDDFTDFYLVMPFMGTDLGKLMKHEKLGEDRIQFLVYQMLKGLRYIHAAGIIHRDLKPGNLAVNEDCELKILDFGLARQADSEMTGYVVTRWYRAPEVILNWMRYTQTVDIWSVGCIMAEMITGKTLFKGSDHLDQLKEIMKVTGTPPAEFVQRLQSDEAKNYMKGLPELEKKDFASILTNASPLAVNLLEKMLVLDAEQRVTAGEALAHPYFESLHDTEDEPQVQKYDDSFDDVDRTLDEWKRVTYKEVLSFKPPRQLGARVSKETPL
notes: Recombinant p38γ from bacteria was used in the in vitro kinase assays; also called p38γ WT; wild-type p38γ (WT); not shown: N-terminal HA-tag
B2: constitutive active p38γ (D179A), HA-tagged (enzyme)
chain: MSSPPPARSGFYRQEVTKTAWEVRAVYRDLQPVGSGAYGAVCSAVDGRTGAKVAIKKLYRPFQSELFAKRAYRELRLLKHMRHENVIGLLDVFTPDETLDDFTDFYLVMPFMGTDLGKLMKHEKLGEDRIQFLVYQMLKGLRYIHAAGIIHRDLKPGNLAVNEDCELKILDFGLARQAASEMTGYVVTRWYRAPEVILNWMRYTQTVDIWSVGCIMAEMITGKTLFKGSDHLDQLKEIMKVTGTPPAEFVQRLQSDEAKNYMKGLPELEKKDFASILTNASPLAVNLLEKMLVLDAEQRVTAGEALAHPYFESLHDTEDEPQVQKYDDSFDDVDRTLDEWKRVTYKEVLSFKPPRQLGARVSKETPL
notes: also called p38γ^CA; p38γ CA; not shown: N-terminal HA-tag
B3: WT p38γ with deletion of the C-terminal PDZ-binding motif (ΔPm) (enzyme)
chain: MSSPPPARSGFYRQEVTKTAWEVRAVYRDLQPVGSGAYGAVCSAVDGRTGAKVAIKKLYRPFQSELFAKRAYRELRLLKHMRHENVIGLLDVFTPDETLDDFTDFYLVMPFMGTDLGKLMKHEKLGEDRIQFLVYQMLKGLRYIHAAGIIHRDLKPGNLAVNEDCELKILDFGLARQADSEMTGYVVTRWYRAPEVILNWMRYTQTVDIWSVGCIMAEMITGKTLFKGSDHLDQLKEIMKVTGTPPAEFVQRLQSDEAKNYMKGLPELEKKDFASILTNASPLAVNLLEKMLVLDAEQRVTAGEALAHPYFESLHDTEDEPQVQKYDDSFDDVDRTLDEWKRVTYKEVLSFKPPRQLGARVSK
notes: also called p38γ ΔPm; ΔPDZm; not shown: N-terminal HA-tag
B4: CA p38γ with deletion of the C-terminal PDZ-binding motif (ΔPm) (enzyme)
chain: MSSPPPARSGFYRQEVTKTAWEVRAVYRDLQPVGSGAYGAVCSAVDGRTGAKVAIKKLYRPFQSELFAKRAYRELRLLKHMRHENVIGLLDVFTPDETLDDFTDFYLVMPFMGTDLGKLMKHEKLGEDRIQFLVYQMLKGLRYIHAAGIIHRDLKPGNLAVNEDCELKILDFGLARQAASEMTGYVVTRWYRAPEVILNWMRYTQTVDIWSVGCIMAEMITGKTLFKGSDHLDQLKEIMKVTGTPPAEFVQRLQSDEAKNYMKGLPELEKKDFASILTNASPLAVNLLEKMLVLDAEQRVTAGEALAHPYFESLHDTEDEPQVQKYDDSFDDVDRTLDEWKRVTYKEVLSFKPPRQLGARVSK
notes: also called p38γ^CA ΔPm; ΔPDZm; not shown: N-terminal HA-tag

What was measured:
[1] = biological target: T1, human tau (441 amino acids), wild-type (human, UniProt P10636 1-758); test: co-IP with V5-tagged tau from transfected cells, immunoblot
T1 construct: Expressed in transfected cells for co-IP; GST-tau (E. coli) was used for microscale thermophoresis and GST pulldown, eGFP-tau for FLIM/FRET, recombinant tau for kinase assays; also called hTau40; WT tau; not shown: V5 tag from vector pcDNA3.2/V5-DEST

[2] = biological target: T2, rat PSD95 (FLAG-PSD-95), expressed in transfected cells (rat, UniProt P31016 1-724); test: co-IP from transfected cells, immunoblot
T2 construct: eGFP-PSD-95 (293T lysate) was used for microscale thermophoresis and PSD-95 internally tagged with mCherry for FLIM/FRET; not shown: FLAG tag

[3] = biological target: T2, rat PSD95 (FLAG-PSD-95), expressed in …; test: co-IP with PSD-95 from transfected cells, immunoblot

T2 sequence (P31016 whole entry): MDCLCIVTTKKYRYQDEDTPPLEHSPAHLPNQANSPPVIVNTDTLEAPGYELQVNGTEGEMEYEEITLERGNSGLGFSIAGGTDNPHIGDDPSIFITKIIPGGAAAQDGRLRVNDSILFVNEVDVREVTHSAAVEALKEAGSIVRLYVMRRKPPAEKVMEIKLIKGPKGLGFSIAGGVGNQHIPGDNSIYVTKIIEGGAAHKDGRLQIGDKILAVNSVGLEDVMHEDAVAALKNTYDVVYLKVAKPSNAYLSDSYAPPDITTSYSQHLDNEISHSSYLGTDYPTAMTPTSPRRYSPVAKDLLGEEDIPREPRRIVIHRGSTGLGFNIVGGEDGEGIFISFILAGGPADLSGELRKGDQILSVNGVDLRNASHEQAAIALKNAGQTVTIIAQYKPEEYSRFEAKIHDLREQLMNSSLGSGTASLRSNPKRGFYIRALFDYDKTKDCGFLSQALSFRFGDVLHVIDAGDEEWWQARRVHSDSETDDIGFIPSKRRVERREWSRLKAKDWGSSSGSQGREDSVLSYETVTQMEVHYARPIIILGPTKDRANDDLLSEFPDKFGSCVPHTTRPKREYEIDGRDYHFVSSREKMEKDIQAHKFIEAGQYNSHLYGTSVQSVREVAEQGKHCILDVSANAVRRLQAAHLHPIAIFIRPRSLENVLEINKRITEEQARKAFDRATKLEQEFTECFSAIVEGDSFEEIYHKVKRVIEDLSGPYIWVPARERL
T1 sequence (P10636 other isoform, or with tags, fused parts or gaps): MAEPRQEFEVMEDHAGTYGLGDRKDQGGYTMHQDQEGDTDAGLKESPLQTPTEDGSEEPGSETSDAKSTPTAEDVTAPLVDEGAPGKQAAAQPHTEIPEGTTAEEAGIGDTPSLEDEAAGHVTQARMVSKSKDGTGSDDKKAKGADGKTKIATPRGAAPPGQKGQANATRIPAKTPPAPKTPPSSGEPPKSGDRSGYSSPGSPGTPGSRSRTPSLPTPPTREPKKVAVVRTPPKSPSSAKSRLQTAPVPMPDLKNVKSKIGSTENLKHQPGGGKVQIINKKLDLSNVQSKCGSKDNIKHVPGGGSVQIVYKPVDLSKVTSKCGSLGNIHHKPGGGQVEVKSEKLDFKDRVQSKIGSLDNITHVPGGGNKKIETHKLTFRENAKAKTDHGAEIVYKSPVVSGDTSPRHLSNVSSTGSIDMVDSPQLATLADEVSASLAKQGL

Row | Binder | binding result [1] | binding result [2] | binding result [3]
1 | B1 | binds | binds | –
2 | B2 | binds | binds | –
3 | B3 | – | – | no binding
4 | B4 | – | – | no binding

— patent US20230053214A1 (MACQUARIE UNIVERSITY, published 2023)
